Patent US20150139990A1 (DAINIPPON SUMITOMO PHARMA, published 2015)
Positions count from the first letter of the chain named. Numbers in names are those of the source. One block for each binder: values may come before it.

Experiments:
[1] = biological target: T1, human CD81 on CD81-expressing cells (Jurkat E6.1, human PBMC, Ramos) (human, UniProt P60033 1-236); experiment: flow cytometry, Jurkat E6.1 cells
T1 construct: endogenous CD81 of the cells; also called wild type human CD81
T1 sequence: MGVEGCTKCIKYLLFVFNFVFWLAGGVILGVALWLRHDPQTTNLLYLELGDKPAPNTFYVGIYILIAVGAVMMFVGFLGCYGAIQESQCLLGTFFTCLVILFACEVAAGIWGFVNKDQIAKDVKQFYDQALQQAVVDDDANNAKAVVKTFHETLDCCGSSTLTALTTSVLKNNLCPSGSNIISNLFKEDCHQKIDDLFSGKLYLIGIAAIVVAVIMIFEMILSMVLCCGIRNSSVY
Text: Based on known information (JOURNAL OF VIROLOGY., 79, 4316-4328, 2005), Jurkat E6.1 cells and human PBMC (Peripheral Blood Mononuclear cells) were used as human CD81-expressing cells to confirm binding of the antibodies of the present invention obtained in Example 1 to the human CD81-expressing cells. Jurkat E6.1 cells were purchased from European Collection of Cell Cultures (ECACC) (Cat No. 88042803). Human PBMC were purchased from KAC Co., Ltd. (KAC). These cells were collected by centrifugation (4,000 rpm, 3 min, 4° C.) and suspended in FACS staining buffer (phosphate buffer, 0.09% sodium azide, 1% bovine serum albumin (BSA: Hyclone Laboratories)). The number of viable cells was counted using trypan blue and 10⁶ cells/100 μl were added in an eppendorf tube.
To the cells prepared in (1) above was added the anti-human CD81 antibody (002-A07 or 005-001) prepared in Example 1 or a human IgG4 (Acris) as a control (0.1 μg), and the cells were incubated for 20 min at 4° C. […] The binding ratio (%) of the anti-human CD81 antibody to the cells was analyzed by flow cytometry using FACS Calibur (BD Biosciences) and calculated as the percentage of cells having a PE-derived fluorescent intensity greater than that observed when the control IgG4 is used. […]

[2] = biological target: T2, h80c human-chicken CD81 chimera (human; chicken); experiment: ELISA
T2 construct: as m30; not shown: C-terminal V5 and 6xHis tags
T2 chain: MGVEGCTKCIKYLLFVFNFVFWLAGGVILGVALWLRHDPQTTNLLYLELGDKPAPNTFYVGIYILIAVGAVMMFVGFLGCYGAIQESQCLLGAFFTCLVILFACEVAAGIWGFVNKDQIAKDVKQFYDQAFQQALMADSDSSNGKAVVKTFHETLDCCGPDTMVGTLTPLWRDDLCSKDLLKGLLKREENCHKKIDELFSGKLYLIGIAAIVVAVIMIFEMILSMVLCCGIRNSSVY
Description: (§1) To identify the epitopes to which each of the anti-human CD81 antibodies (002-A07 and 005-001) bind, ELISA assays were performed using human-chicken CD81 chimera constructs listed in Table 6. Each construct was transiently expressed in CHO cells and its cell membrane fraction was solubilized with detergents and immobilized onto a plate.
(§2) As control antibodies, human IgG4 antibody (Acris Antibodies GmbH) and mouse IgG antibody were used. Human-chicken chimera protein was captured via His tag introduced into the C-terminal by adding the membrane fraction (5 μg/100 μL/well) prepared (1) above to Ni NTA His Sorb plate (QIAGEN) in the presence of 1% (w/v) n-Octylglucoside and incubating for 3 hours at 4° C. After washing with TBST (TBS, 0.05% (v/v) Tween 20) three times, an anti-human CD81 antibody or a control antibody (50 μL/well) was added and incubated for 1 hour at room temperature (RT). After washing, 2000 fold-diluted HRP-labeled anti-human IgG4 antibody (Mouse anti-human IgG₄ HRP clone:HP6023 Beckman Coulter) or 1000 fold-diluted HRP-labeled anti-mouse IgG antibody (Invitrogen) (50 μL/well) were added. The plate was incubated for 1 hour at RT and washed with TBST three times. And then, peroxidase activity was determined by TMB One solution (Promega; Code 53025). The reaction was stopped with 2 M H₂SO₄ (50 μL) and absorbance at 450 nm was measured.

[3] = biological target: T3, c80h human-chicken CD81 chimera (chicken; human, UniProt P60033 1-236); experiment: ELISA
T3 construct: as m30; not shown: C-terminal V5 and 6xHis tags
T3 chain: T1 sequence with V20I, V27I, P39S, L44I, E48Q, P53Q
Description: as §1, §2

[4] = biological target: T4, h138c human-chicken CD81 chimera (human; chicken); experiment: ELISA
T4 construct: as m30; not shown: C-terminal V5 and 6xHis tags
T4 chain: T2 chain with A93T, F131L, L135V, M136V, A137D
Description: as §1, §2

human CD81 mutant Y127W = biological target: T5, human CD81 mutant Y127W (human, UniProt P60033 1-236, limits assumed); experiment: ELISA
T5 construct: as m30; not shown: C-terminal V5 and 6xHis tags
T5 sequence: T1 sequence with Y127W

binding ratio to cells (%) [1]: 100%
absorbance at 450 nm relative to hCD81 [2]: < 10%
binding result [3]: binds
absorbance at 450 nm relative to hCD81 [4]: < 10%
B1: 002-A07 IgG4 antibody (antibody)
heavy: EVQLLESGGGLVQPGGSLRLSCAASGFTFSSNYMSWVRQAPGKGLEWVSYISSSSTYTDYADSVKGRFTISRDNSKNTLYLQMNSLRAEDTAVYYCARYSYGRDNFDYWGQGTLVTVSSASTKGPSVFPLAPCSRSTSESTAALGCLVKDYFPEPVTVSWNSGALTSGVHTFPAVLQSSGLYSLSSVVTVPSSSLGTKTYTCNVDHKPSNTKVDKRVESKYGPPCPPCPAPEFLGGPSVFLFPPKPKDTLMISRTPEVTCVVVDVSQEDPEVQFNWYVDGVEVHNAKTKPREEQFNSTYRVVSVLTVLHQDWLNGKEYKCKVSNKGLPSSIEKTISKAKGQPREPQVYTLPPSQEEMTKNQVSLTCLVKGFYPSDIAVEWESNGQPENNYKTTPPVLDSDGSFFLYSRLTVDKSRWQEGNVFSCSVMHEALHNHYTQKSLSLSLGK
light: QSVLTQPPSASGTPGQRVTISCTGSTSNIGAGYDTHWYQQLPGTAPKLLIYGNSNRPSGVPDRFSGSKSGTSASLAISGLRSEDEADYYCQSYDTNLSVWVFGGGTKLTVLGQPKAAPSVTLFPPSSEELQANKATLVCLISDFYPGAVTVAWKADSSPVKAGVETTTPSKQSNNKYAASSYLSLTPEQWKSHRSYSCQVTHEGSTVEKTVAPTECS
notes: human IgG4 S228P, lambda light chain

relative binding affinity (human CD81 mutant Y127W): < 20%
B2: 002-A07 S115A (antibody, human IgG4 S228P, lambda, V domains shown)
VH: EVQLLESGGGLVQPGGSLRLSCAASGFTFSSNYMSWVRQAPGKGLEWVSYISSSSTYTDYADSVKGRFTISRDNSKNTLYLQMNSLRAEDTAVYYCARYSYGRDNFDYWGQGTLVTVSS
VL: QSVLTQPPSASGTPGQRVTISCTGSTSNIGAGYDTHWYQQLPGTAPKLLIYGNSNRPSGVPDRFSGSKSGTSASLAISGLRSEDEADYYCQSYDTNLAVWVFGGGTKLTVLG
notes: IgG4 S228P; glycosylation site mutant of 002-A07 VL
